From US20050287542A1 (YALE UNIVERSITY, published 2005) come the findings set out here.

Assay [1] concerns the target calmodulin (Sigma). In words: fluorescence emission change of labelled peptide, HEPES/KCl/CaCl2 buffer.
Assay [2] deals with carbonic anhydrase II (Sigma). In words: fluorescence emission change of labelled peptide, PBS.
Assay [3] addresses T1, HisKIX (His-tagged CBP KIX domain) (UniProt P45481 586-672).
T1 construct: range 586-672; not shown: amino-terminal hexahistidine tag of pET15b
The experiment in a line: fluorescence polarization; end tied to the member by the Kd of Table 1. (In general: Polarisation of emitted light reports the rotation of a fluorescent probe.)

Assay [4] has as its target calmodulin (Sigma). In words: fluorescence polarization, calmodulin. How it is done:
(§1) Binding reactions containing serially diluted target protein and 25-50 nM of fluorescein-labeled peptides (peptide^Flu) were incubated for 30 min at 25° C. Each point represents the average polarization of two to three independent samples; error bars denote standard error. […] Circular and triangular symbols indicate that HisKIX was used as the target protein; the symbols are colored as in FIG. 9 with the exception of the points for peptide C^U, which are in orange for clarity. Square symbols indicate that carbonic anhydrase was used as the target protein. […] Circular and triangular symbols indicate that HisKIX was used as the target protein, and the symbols are colored as in FIG. 9. Square symbols indicate that calmodulin was used as the target protein.

Assay [5] addresses T1, HisKIX (His-tagged CBP KIX domain). The experiment in a line: fluorescence polarization. Here is the method:
as §1

The target of assay [6] is carbonic anhydrase II (Sigma). In words: fluorescence polarization. Here is the method: as §1
Assay [7] addresses calmodulin (Sigma). The experiment in a line: fluorescence polarization. Here is the method:
as §1

Assay [8] has as its target T1, HisKIX (His-tagged CBP KIX domain). In words: fluorescence polarization. This is another data set of the same source.
In assay [9] the target is calmodulin (Sigma). The experiment in a line: fluorescence polarization. This is another data set of the same source.
The target of assay [10] is T1, HisKIX (His-tagged CBP KIX domain). The experiment in a line: fluorescence polarization, HisKIX, 25 C.
The target of assay [11] is carbonic anhydrase II (Sigma). The experiment in a line: fluorescence polarization, carbonic anhydrase II.
Assay [12] has as its target T2, GST-KIXY650A (Y650A variant of CBP KIX) (UniProt P45481 586-665, limits assumed).
T2 construct: domain: KIX; not shown: GST tag
The experiment in a line: fluorescence polarization.

The next assay deals with T3, CBP KIX variant E655A (UniProt P45481 586-665, limits assumed).
T3 construct: domain: KIX
In words: fluorescence polarization.

The next assay deals with T4, CBP KIX variant I660A (UniProt P45481 586-665, limits assumed).
T4 construct: domain: KIX
In words: fluorescence polarization.

The next assay concerns the target T5, CBP KIX variant Y658F (UniProt P45481 586-665, limits assumed).
T5 construct: domain: KIX
In words: fluorescence polarization.

Assay [13] concerns the target T6, CBP KIX variant LL652-3AA (UniProt P45481 586-665, limits assumed).
T6 construct: domain: KIX
The experiment in a line: fluorescence polarization.

The next assay addresses T7, CBP KIX variant L599A (UniProt P45481 586-665, limits assumed).
T7 construct: domain: KIX
In words: fluorescence polarization.

The next assay has as its target T8, CBP KIX variant I657A (UniProt P45481 586-665, limits assumed).
T8 construct: domain: KIX
In words: fluorescence polarization.

A further assay deals with T9, CBP KIX variant Q661A (UniProt P45481 586-665, limits assumed).
T9 construct: domain: KIX
The experiment in a line: fluorescence polarization.

In the next assay the target is T10, CBP KIX variant K662A (UniProt P45481 586-665, limits assumed).
T10 construct: domain: KIX
In words: fluorescence polarization.

Another assay addresses T11, CBP KIX variant K606A (UniProt P45481 586-665, limits assumed).
T11 construct: domain: KIX
The experiment in a line: fluorescence polarization.

A further assay addresses T12, CBP KIX variant L603A (UniProt P45481 586-665, limits assumed).
T12 construct: domain: KIX
The experiment in a line: fluorescence polarization.

Another assay deals with T13, CBP KIX variant Y658A (UniProt P45481 586-665, limits assumed).
T13 construct: domain: KIX
The experiment in a line: fluorescence polarization.

The target of assay [14] is T14, CBP KIX variant Y650A (Example 20) (UniProt P45481 586-665, limits assumed).
T14 construct: domain: KIX
The experiment in a line: fluorescence polarization.

Assay [15] deals with calmodulin (Sigma). The experiment in a line: fluorescence polarization, calmodulin (text differs from Table 2).
Protocol: 6) Fluorescence polarization—Fluorescence polarization experiments were performed with a Photon Technology International QuantaMaster C-60 spectrofluorimeter at 25° C. in a 1 cm pathlength Hellma cuvette. […] Briefly, an aliquot of fluorescently labeled peptide was added to a final concentration of 25-50 nM and the binding reaction was incubated for 30 min at 25° C. Thirty minutes was a sufficient length of time for the binding reaction to reach equilibrium, as judged by an absence of change in the observed polarization value of the sample with the highest HisKIX concentration over 1 h. […] For specificity measurements, carbonic anhydrase II (Sigma) or calmodulin (Sigma) was used as the target protein in place of HisKIX, and fluorescently labeled peptide was used at a final concentration of 50 nM.
In assay [16] the target is T15, wild type CBP KIX (Example 20) (UniProt P45481 586-665, limits assumed).
T15 construct: domain: KIX
The experiment in a line: fluorescence polarization.

Assay [17] deals with T1, HisKIX (His-tagged CBP KIX domain). In words: fluorescence polarization competition; displaces 25 nM fluorescein-labelled PPKID4^P from 1.5 µM HisKIX.
For assay [18] the target is unchanged. The experiment in a line: fluorescence polarization competition; displaces 25 nM fluorescein-labelled PPKID6^U from 3.0 µM HisKIX.
Assay [19] shares this target. The experiment in a line: fluorescence polarization competition: 25 nM fluorescein-labelled PPKID4^P on 1.5 uM HisKIX, unlabelled KID-AB^P titrated.
Protocol: Each point represents an average of three independent samples; the error bars denote standard error.
6) Fluorescence polarization—Fluorescence polarization experiments were performed with a Photon Technology International QuantaMaster C-60 spectrofluorimeter at 25° C. in a 1 cm pathlength Hellma cuvette. […] Briefly, an aliquot of fluorescently labeled peptide was added to a final concentration of 25-50 nM and the binding reaction was incubated for 30 min at 25° C. Thirty minutes was a sufficient length of time for the binding reaction to reach equilibrium, as judged by an absence of change in the observed polarization value of the sample with the highest HisKIX concentration over 1 h.

Square brackets hold non-standard residues; d marks the D form. Primed or numbered codes have the meaning given here. Ends that are not written are not given here. * marks the point of attachment. acetamidofluorescein = acetamidofluorescein label attached to the side chain of a C-terminal cysteine residue (made by modifying the cysteine with 5-iodoacetamidofluorescein); acetamidofluorescein″ = acetamidofluorescein (5-iodoacetamidofluorescein attached to the C-terminal Cys); Fluorescein(5-NHCOCH2) = O=C(C*)Nc1ccc2c(c1)C(=O)OC21c2ccc(O)cc2Oc2cc(O)ccc21; pS = N[C@@H](COP(=O)(O)O)C(=O)O

What is called Kd is a measure of binding affinity in units of concentration. Lower therefore signals a tighter complex. Broadly, the IC50 is the midpoint of a concentration-inhibition curve. Low readings indicate greater potency in that assay, high ones weaker potency in that assay.

T1 sequence (P45481 586-672): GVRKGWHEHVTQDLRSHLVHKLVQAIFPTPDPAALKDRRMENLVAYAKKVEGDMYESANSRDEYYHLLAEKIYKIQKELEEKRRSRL
carbonic anhydrase II (Sigma), sequence (P00921 2-260): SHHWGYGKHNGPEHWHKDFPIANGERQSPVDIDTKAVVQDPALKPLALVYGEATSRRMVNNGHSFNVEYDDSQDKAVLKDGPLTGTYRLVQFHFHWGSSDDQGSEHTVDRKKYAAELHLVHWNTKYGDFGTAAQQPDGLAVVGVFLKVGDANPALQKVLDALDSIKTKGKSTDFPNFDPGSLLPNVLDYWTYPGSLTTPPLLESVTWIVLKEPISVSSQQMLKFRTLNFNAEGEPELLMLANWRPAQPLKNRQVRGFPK
T15 sequence (P45481 586-665 limits assumed): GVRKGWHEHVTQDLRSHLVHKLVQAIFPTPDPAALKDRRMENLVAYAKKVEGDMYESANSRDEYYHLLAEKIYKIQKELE
T6 sequence (P45481 other isoform, or with tags, fused parts or gaps mutant limits assumed): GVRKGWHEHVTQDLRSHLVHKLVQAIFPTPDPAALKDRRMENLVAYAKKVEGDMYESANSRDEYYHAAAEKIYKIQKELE
T4 sequence (P45481 586-665 I660A limits assumed): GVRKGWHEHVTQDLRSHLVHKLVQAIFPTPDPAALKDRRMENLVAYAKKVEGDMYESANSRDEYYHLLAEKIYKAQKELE
T14 sequence (P45481 586-665 Y650A limits assumed): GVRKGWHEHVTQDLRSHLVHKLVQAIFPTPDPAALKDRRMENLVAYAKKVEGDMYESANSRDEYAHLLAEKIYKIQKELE
T8 sequence (P45481 586-665 I657A limits assumed): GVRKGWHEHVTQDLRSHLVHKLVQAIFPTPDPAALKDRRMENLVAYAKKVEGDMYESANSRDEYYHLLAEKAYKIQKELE
T7 sequence (P45481 586-665 L599A limits assumed): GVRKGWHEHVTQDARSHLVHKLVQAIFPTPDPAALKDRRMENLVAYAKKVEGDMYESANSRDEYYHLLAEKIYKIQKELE
T3 sequence (P45481 586-665 E655A limits assumed): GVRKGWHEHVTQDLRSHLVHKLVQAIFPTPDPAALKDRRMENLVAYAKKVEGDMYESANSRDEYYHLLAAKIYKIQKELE
T5 sequence (P45481 586-665 Y658F limits assumed): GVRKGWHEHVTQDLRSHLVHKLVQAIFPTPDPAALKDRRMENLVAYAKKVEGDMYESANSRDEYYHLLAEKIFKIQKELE
T11 sequence (P45481 586-665 K606A limits assumed): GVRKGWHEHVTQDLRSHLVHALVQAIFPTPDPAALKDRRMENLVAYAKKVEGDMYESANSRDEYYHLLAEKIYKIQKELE
T9 sequence (P45481 586-665 Q661A limits assumed): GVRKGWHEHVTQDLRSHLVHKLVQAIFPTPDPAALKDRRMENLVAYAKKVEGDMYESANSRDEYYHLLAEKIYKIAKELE
T13 sequence (P45481 586-665 Y658A limits assumed): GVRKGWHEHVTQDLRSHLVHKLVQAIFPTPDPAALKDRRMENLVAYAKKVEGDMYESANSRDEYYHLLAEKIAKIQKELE
T12 sequence (P45481 586-665 L603A limits assumed): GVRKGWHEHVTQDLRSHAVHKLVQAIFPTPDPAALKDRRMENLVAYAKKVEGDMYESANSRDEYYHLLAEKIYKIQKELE
T10 sequence (P45481 586-665 K662A limits assumed): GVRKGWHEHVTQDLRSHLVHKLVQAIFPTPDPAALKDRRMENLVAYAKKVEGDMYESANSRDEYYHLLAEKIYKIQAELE
T2 sequence (P45481 586-665 Y650A limits assumed): as the sequence (P45481 586-665 Y650A limits assumed) above

On to GQVGRQLAIIGDDINRYC(5‑iodoacetamidofluorescein)-NH2 (also called Bak BH3 peptide; Bak 72-94) [Bak peptide, fluorescein-labelled (Bak-flu)], for which the Kd was found to be 25 µM with calmodulin (Sigma) [1] and 22 µM in assay [2].

Turning to GASDMTYWGDDAPVRRLSFFYILLDLYLDAPGVC(acetamidofluorescein″)-NH2 (designed binder, also called PPKID1 (unphosphorylated)) [PPKID1^U], the “ΔΔG against peptide C^U” value in assay [3] was found to be 0.1 kcal/mol.

RRL[pS]FFYILLDLYLDAPGVC(acetamidofluorescein)-NH2 [peptide C^P (chimeric α-helical portion of the PPKID peptides, residues 15-33, phosphorylated)]: the figures for the Kd (with calmodulin (Sigma) [4]; in assay [5]; in assay [10]) were 178 µM, 2.4 µM and 2.4 µM, respectively. Besides, in assay [6], the “Krel = Kd (CA)/Kd (HisKIX)” value worked out at 40. Moreover, the “Krel = Kd (CalM)/Kd (HisKIX)” value with calmodulin (Sigma) [7] was 74. Further, in [8], the “ΔΔG against KID-B^P” value is -1.8 kcal/mol. In the assay with calmodulin (Sigma) [9], the “fold lower affinity than PPKID4^P” value was found to be 4 fold.

Regarding GISWPTFEGDDAPVRRLEFFYILLDLYLDAPGVC(acetamidofluorescein″)-NH2 (designed binder) [PPKID6 S18E], the “ΔΔG against PPKID6^U” value in assay [8] was 1.2 kcal/mol.

As for GISWPTFEGDDAPVRRL[pS]FFYILLDLYLDAPGVC(acetamidofluorescein″)-NH2 (designed binder, also called PPKID6 (phosphorylated)) [PPKID6^P], in assay [8], the ΔΔG upon phosphorylation was -0.5 kcal/mol.

On to GISWPTFEGDDAPVRRLSFFYILLDLYLDAPGVC(acetamidofluorescein)-NH2 (designed binder, also called PPKID6 (unphosphorylated)) [PPKID6^U], for which the equilibrium dissociation constant (Kd) was over 168 µM with calmodulin (Sigma) [4], 79 µM in [11] and 0.712 µM in [12]. Moreover, the “Krel = Kd (CA)/Kd (HisKIX)” value in assay [6] was 53. Moreover, in the assay with calmodulin (Sigma) [7], the “Krel = Kd (CalM)/Kd (HisKIX)” value was over 112. Further, the “ΔΔG against wild type CBP KIX” value was 0.68 kcal/mol with CBP KIX variant E655A; 1.4 kcal/mol with CBP KIX variant I660A; 0.97 kcal/mol with CBP KIX variant Y658F; -0.8 kcal/mol in assay [13]; 1.1 kcal/mol with CBP KIX variant L599A; 1.1 kcal/mol with CBP KIX variant I657A. For the same molecule, the “ΔΔG against wild type CBP KIX” value in the assay with CBP KIX variant Q661A was -0.16 kcal/mol; with CBP KIX variant K662A it was 0.71 kcal/mol; in the assay with CBP KIX variant K606A, 0.47 kcal/mol; with CBP KIX variant L603A, 0.91 kcal/mol; with CBP KIX variant Y658A it was 0.68 kcal/mol; in assay [14], 0.52 kcal/mol.

B1: p4099, fluorescein-labelled (designed binder)
peptide: GPSQPTYPGDDAPVEDLIRFVGRLLAYFGDTINRYC(5‑iodoacetamidofluorescein)-NH2
notes: p4121-flu tied to p4099 by order and mass difference only; also called p4099 (GAGT); p4121-flu
On to B1, for which the values for the Kd (with calmodulin (Sigma) [1]; in assay [2]) were 25 µM and 8.6 µM, respectively.

As for RRLSFFYILLDLYLDAPGVC(acetamidofluorescein)-NH2 [peptide C^U], the “Krel = Kd (CA)/Kd (HisKIX)” value in assay [6] amounted to 3. Also, the “ΔΔG against KID-B^U” value in [8] is at least -1.5 kcal/mol.

B2: PPKID4^P (designed binder)
peptide: GPSQPTYPGDDAPVRRL[pS]FFYILLDLYLDAPGVC(acetamidofluorescein)-NH2
notes: also called PPKID4 (phosphorylated); wild type PPKID4^P
Take B2: the values for the equilibrium dissociation constant (Kd) (with calmodulin (Sigma) [4]; in assay [11]; with calmodulin (Sigma) [15]) were 52 µM, 106 µM and 51 µM, respectively. Besides, the “ΔΔG against wild type CBP KIX” value with CBP KIX variant E655A was -0.07 kcal/mol; with CBP KIX variant I660A it was 0.35 kcal/mol; with CBP KIX variant Y658F, 1.1 kcal/mol; in [13], 0.93 kcal/mol; with CBP KIX variant L599A it was 0.58 kcal/mol; in the assay with CBP KIX variant I657A it was 0.89 kcal/mol. For the same molecule, the “ΔΔG against wild type CBP KIX” value was found to be 0.35 kcal/mol with CBP KIX variant Q661A; 1.1 kcal/mol with CBP KIX variant K662A; 0.97 kcal/mol with CBP KIX variant K606A; 1 kcal/mol with CBP KIX variant L603A; 1.1 kcal/mol with CBP KIX variant Y658A; 0.95 kcal/mol in assay [14].

H-GPSQPTYAGDDAPVRRL[pS]FFYILLDLYLDAPGVC(Fluorescein(5-NHCOCH2))-NH2 (designed binder) [PPKID4^P variant P8A]: in assay [16], the “ΔΔG against wild type PPKID4^P” value turned out to be 0.33 kcal/mol.

Turning to H-GPSQPTYPGDDAPVRRA[pS]FFYILLDLYLDAPGVC(Fluorescein(5-NHCOCH2))-NH2 (designed binder) [PPKID4^P variant L17A], in assay [16], the “ΔΔG against wild type PPKID4^P” value stood at 0.07 kcal/mol.

In the case of H-GASQPTYPGDDAPVRRL[pS]FFYILLDLYLDAPGVC(Fluorescein(5-NHCOCH2))-NH2 (designed binder) [PPKID4^P variant P2A], the “ΔΔG against wild type PPKID4^P” value in assay [16] came out at 0.21 kcal/mol.

In the case of H-GPSQPTYPGDDAPVRRL[pS]FFYILLDLALDAPGVC(Fluorescein(5-NHCOCH2))-NH2 (designed binder) [PPKID4^P variant Y27A], the “ΔΔG against wild type PPKID4^P” value in assay [16] amounted to 0.96 kcal/mol.

As for H-GPSQPTYPGDDAPVRRL[pS]FFYILADLYLDAPGVC(Fluorescein(5-NHCOCH2))-NH2 (designed binder) [PPKID4^P variant L24A], the “ΔΔG against wild type PPKID4^P” value in assay [16] was 0.38 kcal/mol.

Regarding H-GPSQPTYPGDDAPVRRL[pS]FFYILLDLYADAPGVC(Fluorescein(5-NHCOCH2))-NH2 (designed binder) [PPKID4^P variant L28A], the “ΔΔG against wild type PPKID4^P” value in assay [16] is 0.18 kcal/mol.

Consider H-GPSQPTYPGDDAPVRRL[pS]FAYILLDLYLDAPGVC(Fluorescein(5-NHCOCH2))-NH2 (designed binder) [PPKID4^P variant F20A], for which the “ΔΔG against wild type PPKID4^P” value in assay [16] came to 0.85 kcal/mol.

Take H-GPSQATYPGDDAPVRRL[pS]FFYILLDLYLDAPGVC(Fluorescein(5-NHCOCH2))-NH2 (designed binder) [PPKID4^P variant P5A]: the “ΔΔG against wild type PPKID4^P” value in assay [16] amounted to 0.3 kcal/mol.

In the case of TDSQKRREILSRRP[pS]YRKILNDLSSDAPGVC-NH2 (also called CREB KID^P) [unlabeled KID-AB^P], the results for the IC50 in assay [17] and in [18] were 3.2 µM and 2.4 µM, respectively. Further, the “IC50 (read off the curve)” value in [19] is about 3 µM.

In the case of GASPHTSSGDDAPVRRLSFFDILLDLYLDAPGVC(acetamidofluorescein″)-NH2 (designed binder, also called PPKID3 (unphosphorylated)) [PPKID3^U], in assay [3], the “ΔΔG against peptide C^U” value is -0.7 kcal/mol.
